# Assay results reported in patent US20250136720A1 (Boehringer Ingelheim, published 2025).
# Key:
# [1] = target: T1, Human CD137 on Jurkat cells (human, UniProt Q07011 24-255); test: cell-based or functional assay; design: IC90; Jurkat-CD137 NFkB-luciferase, HT1080-FAP co-culture / EC90; Jurkat-CD137 NFkB-luciferase, HT1080-FAP co-culture: unit not given beside the values
# [2] = target: T1, Human CD137 on Jurkat cells; test: cell-based or functional assay
Binder,"EC90; Jurkat-CD137 NFkB-luciferase, HT1080-FAP co-culture [1]","IC90; Jurkat-CD137 NFkB-luciferase, HT1080-FAP co-culture [1]","Total AUC; Jurkat-CD137 NFkB-luciferase, HT1080-FAP co-culture [1]","Average EC50; Jurkat-CD137 NFkB-luciferase, HT1080-FAP co-culture [2]","Average EC90; Jurkat-CD137 NFkB-luciferase, HT1080-FAP co-culture [2]","Average IC50; Jurkat-CD137 NFkB-luciferase, HT1080-FAP co-culture [2]","Average IC90; Jurkat-CD137 NFkB-luciferase, HT1080-FAP co-culture [2]","Ratio IC50/EC50; Jurkat-CD137 NFkB-luciferase, HT1080-FAP co-culture [2]","Ratio IC90/EC90; Jurkat-CD137 NFkB-luciferase, HT1080-FAP co-culture [2]"
"CD137 #3 (B21.V22) + FAP #3 (A11 VK7/VH1) (bispecific antibody, human IgG1, kappa, L234A L235A) heavy: not shown light: DIQMTQSPSSLSASVGDRVTITCRASQSVSSALAWYQQKPGKAPKLLIYAASYRQSGVPSRFSGSGSGTDFTLTISSLQPEDFAVYYCQQHYSNPWTFGQGTKLEIKRTVAAPSVFIFPPSDEQLKSGTASVVCLLNNFYPREAKVQWKVDNALQSGNSQESVTEQDSKDSTYSLSSTLTLSKADYEKHKVYACEVTHQGLSSPVTKSFNRGEC",2.41,144,1.9e+06,–,–,–,–,–,–
"CD137 #2 (B21.V16) + FAP #3 (A11 VK7/VH1) (bispecific antibody, human IgG1, kappa, L234A L235A) heavy: not shown light: DIQMTQSPSSLSASVGDRVTITCKASQDISSAVAWYQQKPGKAPKLLIYSASSRYTGVPSRFSGSGSGTDFTLTISSLQPEDFAVYYCQQHYSNPWTFGQGTKLEIKRTVAAPSVFIFPPSDEQLKSGTASVVCLLNNFYPREAKVQWKVDNALQSGNSQESVTEQDSKDSTYSLSSTLTLSKADYEKHKVYACEVTHQGLSSPVTKSFNRGEC",–,–,–,0.082 nM,0.613 nM,361 nM,48.4 nM,4380,79.1
"CD137 #3 (B21.V22) + FAP #5 (C3 VK1/VH4) (bispecific antibody, human IgG1, kappa, L234A L235A) heavy: not shown light: DIQMTQSPSSLSASVGDRVTITCRASQSVSSALAWYQQKPGKAPKLLIYAASYRQSGVPSRFSGSGSGTDFTLTISSLQPEDFAVYYCQQHYSNPWTFGQGTKLEIKRTVAAPSVFIFPPSDEQLKSGTASVVCLLNNFYPREAKVQWKVDNALQSGNSQESVTEQDSKDSTYSLSSTLTLSKADYEKHKVYACEVTHQGLSSPVTKSFNRGEC",2.18,87.8,2.3e+06,–,–,–,–,–,–
"CD137 #4 (B21.V25) + FAP #3 (A11 VK7/VH1) (bispecific antibody, human IgG1, kappa, L234A L235A) heavy: not shown light: DIQMTQSPSSLSASVGDRVTITCRASQSISTAVAWYQQKPGKAPKLLIYAASYLYSGVPSRFSGSGSGTDFTLTISSLQPEDFAVYYCQQHYSNPWTFGQGTKLEIKRTVAAPSVFIFPPSDEQLKSGTASVVCLLNNFYPREAKVQWKVDNALQSGNSQESVTEQDSKDSTYSLSSTLTLSKADYEKHKVYACEVTHQGLSSPVTKSFNRGEC",2.55,492,2.5e+06,0.248 nM,1.51 nM,747 nM,79.2 nM,3010,52.3
"CD137 #3 (B21.V22) + FAP #2 (A11 VK3/VH3) (bispecific antibody, human IgG1, kappa, L234A L235A) heavy: not shown light: DIQMTQSPSSLSASVGDRVTITCRASQSVSSALAWYQQKPGKAPKLLIYAASYRQSGVPSRFSGSGSGTDFTLTISSLQPEDFAVYYCQQHYSNPWTFGQGTKLEIKRTVAAPSVFIFPPSDEQLKSGTASVVCLLNNFYPREAKVQWKVDNALQSGNSQESVTEQDSKDSTYSLSSTLTLSKADYEKHKVYACEVTHQGLSSPVTKSFNRGEC",1.42,69.6,2.4e+06,–,–,–,–,–,–
"CD137 #4 (B21.V25) + FAP #2 (A11 VK3/VH3) (bispecific antibody, human IgG1, kappa, L234A L235A) heavy: not shown light: DIQMTQSPSSLSASVGDRVTITCRASQSISTAVAWYQQKPGKAPKLLIYAASYLYSGVPSRFSGSGSGTDFTLTISSLQPEDFAVYYCQQHYSNPWTFGQGTKLEIKRTVAAPSVFIFPPSDEQLKSGTASVVCLLNNFYPREAKVQWKVDNALQSGNSQESVTEQDSKDSTYSLSSTLTLSKADYEKHKVYACEVTHQGLSSPVTKSFNRGEC",0.65,46.9,3.3e+06,0.273 nM,0.738 nM,888 nM,84 nM,3260,114

# The next lines start with the values.
"EC90; Jurkat-CD137 NFkB-luciferase, HT1080-FAP co-culture [1]","IC90; Jurkat-CD137 NFkB-luciferase, HT1080-FAP co-culture [1]","Total AUC; Jurkat-CD137 NFkB-luciferase, HT1080-FAP co-culture [1]","Average EC50; Jurkat-CD137 NFkB-luciferase, HT1080-FAP co-culture [2]","Average EC90; Jurkat-CD137 NFkB-luciferase, HT1080-FAP co-culture [2]","Average IC50; Jurkat-CD137 NFkB-luciferase, HT1080-FAP co-culture [2]","Average IC90; Jurkat-CD137 NFkB-luciferase, HT1080-FAP co-culture [2]","Ratio IC50/EC50; Jurkat-CD137 NFkB-luciferase, HT1080-FAP co-culture [2]","Ratio IC90/EC90; Jurkat-CD137 NFkB-luciferase, HT1080-FAP co-culture [2]",Binder
1.91,86.7,1.26e+07,–,–,–,–,–,–,"CD137 #10 (A49.V48) + FAP #3 (A11 VK7/VH1) (bispecific antibody, human IgG1, kappa, L234A L235A) heavy: not shown light: EIVMTQSPLSLPVTPGEPASISCRSSQSLLYSQGYNHLDWYLQKPGQSPQLLIYGGSNRASGVPDRFSGSGSGTDFTLKISRVEAEDVGVYYCMQALQTPPTFGQGTKLEIKRTVAAPSVFIFPPSDEQLKSGTASVVCLLNNFYPREAKVQWKVDNALQSGNSQESVTEQDSKDSTYSLSSTLTLSKADYEKHKVYACEVTHQGLSSPVTKSFNRGEC"
2.57,137,1.13e+07,–,–,–,–,–,–,"CD137 #10 (A49.V48) + FAP #2 (A11 VK3/VH3) (bispecific antibody, human IgG1, kappa, L234A L235A) heavy: not shown light: EIVMTQSPLSLPVTPGEPASISCRSSQSLLYSQGYNHLDWYLQKPGQSPQLLIYGGSNRASGVPDRFSGSGSGTDFTLKISRVEAEDVGVYYCMQALQTPPTFGQGTKLEIKRTVAAPSVFIFPPSDEQLKSGTASVVCLLNNFYPREAKVQWKVDNALQSGNSQESVTEQDSKDSTYSLSSTLTLSKADYEKHKVYACEVTHQGLSSPVTKSFNRGEC"
4.23,742,7.8e+06,–,–,–,–,–,–,"CD137 #9 (A49.V47) + FAP #5 (C3 VK1/VH4) (bispecific antibody, human IgG1, kappa, L234A L235A) heavy: not shown light: EIVMTQSPLSLPVTPGEPASISCRSSQSLLYSQGYNHLDWYLQKPGQSPQLLIYGGSNRASGVPDRFSGSGSGTDFTLKISRVEAEDVGVYYCMQALQTPPTFGQGTKLEIKRTVAAPSVFIFPPSDEQLKSGTASVVCLLNNFYPREAKVQWKVDNALQSGNSQESVTEQDSKDSTYSLSSTLTLSKADYEKHKVYACEVTHQGLSSPVTKSFNRGEC"
6.24,700,1.13e+07,–,–,–,–,–,–,"CD137 #10 (A49.V48) + FAP #5 (C3 VK1/VH4) (bispecific antibody, human IgG1, kappa, L234A L235A) heavy: not shown light: EIVMTQSPLSLPVTPGEPASISCRSSQSLLYSQGYNHLDWYLQKPGQSPQLLIYGGSNRASGVPDRFSGSGSGTDFTLKISRVEAEDVGVYYCMQALQTPPTFGQGTKLEIKRTVAAPSVFIFPPSDEQLKSGTASVVCLLNNFYPREAKVQWKVDNALQSGNSQESVTEQDSKDSTYSLSSTLTLSKADYEKHKVYACEVTHQGLSSPVTKSFNRGEC"
3.01,93.8,7.6e+06,–,–,–,–,–,–,"CD137 #9 (A49.V47) + FAP #2 (A11 VK3/VH3) (bispecific antibody, human IgG1, kappa, L234A L235A) heavy: not shown light: EIVMTQSPLSLPVTPGEPASISCRSSQSLLYSQGYNHLDWYLQKPGQSPQLLIYGGSNRASGVPDRFSGSGSGTDFTLKISRVEAEDVGVYYCMQALQTPPTFGQGTKLEIKRTVAAPSVFIFPPSDEQLKSGTASVVCLLNNFYPREAKVQWKVDNALQSGNSQESVTEQDSKDSTYSLSSTLTLSKADYEKHKVYACEVTHQGLSSPVTKSFNRGEC"
1.65,1.07,9.5e+06,–,–,–,–,–,–,"CD137 #9 (A49.V47) + FAP #3 (A11 VK7/VH1) (bispecific antibody, human IgG1, kappa, L234A L235A) heavy: not shown light: EIVMTQSPLSLPVTPGEPASISCRSSQSLLYSQGYNHLDWYLQKPGQSPQLLIYGGSNRASGVPDRFSGSGSGTDFTLKISRVEAEDVGVYYCMQALQTPPTFGQGTKLEIKRTVAAPSVFIFPPSDEQLKSGTASVVCLLNNFYPREAKVQWKVDNALQSGNSQESVTEQDSKDSTYSLSSTLTLSKADYEKHKVYACEVTHQGLSSPVTKSFNRGEC"
0.8,35.7,3.2e+06,0.115 nM,0.644 nM,319 nM,69.2 nM,2790,107,"CD137 #5 (B21.V29) + FAP #5 (C3 VK1/VH4) (bispecific antibody, human IgG1, kappa, L234A L235A) heavy: not shown light: DIQMTQSPSSLSASVGDRVTITCRASQSISTALAWYQQKPGKAPKLLIYAASYRYSGVPSRFSGSGSGTDFTLTISSLQPEDFAVYYCQQHYSNPWTFGQGTKLEIKRTVAAPSVFIFPPSDEQLKSGTASVVCLLNNFYPREAKVQWKVDNALQSGNSQESVTEQDSKDSTYSLSSTLTLSKADYEKHKVYACEVTHQGLSSPVTKSFNRGEC"
0.78,62.8,2.9e+06,0.16 nM,0.883 nM,444 nM,86.7 nM,2780,98.1,"CD137 #5 (B21.V29) + FAP #2 (A11 VK3/VH3) (bispecific antibody, human IgG1, kappa, L234A L235A) heavy: not shown light: DIQMTQSPSSLSASVGDRVTITCRASQSISTALAWYQQKPGKAPKLLIYAASYRYSGVPSRFSGSGSGTDFTLTISSLQPEDFAVYYCQQHYSNPWTFGQGTKLEIKRTVAAPSVFIFPPSDEQLKSGTASVVCLLNNFYPREAKVQWKVDNALQSGNSQESVTEQDSKDSTYSLSSTLTLSKADYEKHKVYACEVTHQGLSSPVTKSFNRGEC"
0.52,51.9,2.9e+06,0.09 nM,0.671 nM,347 nM,52.8 nM,3840,78.6,"CD137 #5 (B21.V29) + FAP #3 (A11 VK7/VH1) (bispecific antibody, human IgG1, kappa, L234A L235A) heavy: not shown light: DIQMTQSPSSLSASVGDRVTITCRASQSISTALAWYQQKPGKAPKLLIYAASYRYSGVPSRFSGSGSGTDFTLTISSLQPEDFAVYYCQQHYSNPWTFGQGTKLEIKRTVAAPSVFIFPPSDEQLKSGTASVVCLLNNFYPREAKVQWKVDNALQSGNSQESVTEQDSKDSTYSLSSTLTLSKADYEKHKVYACEVTHQGLSSPVTKSFNRGEC"
